Assay: yeast display, Sf9 membrane polyspecificity reagent, FACS + sequencing; frameworks hold sequencing errors
Procedure, shortened: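 Sorting gates, low and high (top ~1%), were placed on anti-HA fluorescence to track expression and on streptavidin fluorescence to track reagent binding. A clone's polyreactivity label is taken from the gate it came out of. The reagent was 10% biotinylated, detergent-solubilized Sf9 membrane, applied for 1 hour at 4 °C to galactose-induced yeast display cells.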
In the case of “QDQLVESGGGLVQAGGSLRLSCSATGRIFRSYAMGWYRQAPGKERELVASITWRGSSTYYADSVKGRFTISRDNAKNTVYLQMNSRKPEDTAVYYCAKEGYLYLWRYDYWGQGTQVTVSS”, the “polyreactivity (PSR sort gate)” value is reported as “high polyreactivity”.
With “QDQLVESGGGLVQAGGSLRLSFAASGSTFFTYPMGWYRQDPGKERELVAAITLNGGSTYYADSVKGRFTISRDNAKNTVYLQMISLKPEDTAVYYCAAEVPDTDYNYWGQGTQVTVSS” the “polyreactivity (PSR sort gate)” value was “low polyreactivity”.
With “QDQLVESGGGLVQAGGSLRLSGAASGSTFDRYAMGWYRQAPGKEREFVAAITWGGGSTYYADSVKGRFTISRDNAKNTVYLQMNSLKPEDTAVYYCASRYGATFGYWGQGTQVTVSS” the “polyreactivity (PSR sort gate)” value was “low polyreactivity”.
For “QDQLVESGGGLVQAGGSLRLTCAASGFIFYHYAMGWYRQAPGKERDLVAAINWSGGSTYYADSVKGRFTISRDNAKKTDYLQMNSLKPEDTAVYYCAAYSTAWYWPGKFDYWGQGTQVTVSS”, the “polyreactivity (PSR sort gate)” value was “high polyreactivity”.
In the case of “QDQLVESGGGLVQAGGSLRLTCAASGRICTYYAMGWYRKATGKERELVASISRSGGNTYYADSVKGRFTISRDNAKNTVYLQMNSLKPEDTAVYYCAAVYSRLDYWGQGTQVTVSS”, the “polyreactivity (PSR sort gate)” value is reported as “high polyreactivity”.
With “QDQLVESGGGLVQAGGSLSLSCAASGQTFYQYAMGWYRQAPGKERELVAAISKSAGSTYYADSVKGRFTISRDNAKNTVYLQMNSLKPEDTAVYYCVARVLRLRYDYWGQGTQVSVSS” the “polyreactivity (PSR sort gate)” value was “high polyreactivity”.
In the case of “QDQLVESGGGLVQAGGSLSLSCAASGSIFFRNVMGWYRQAPGKERELVAAISGSGGRTYNADSVKGRFTISRDNAKNTVYLQMNSLKPEDTAVYYCYADYWSRRDDHDYWGQGTQVSVSS”, the “polyreactivity (PSR sort gate)” value is reported as “high polyreactivity”.
For “QDQLVESGGGLVQAGGSQRLSCAASGFTFRRYAMGWYRQEPGKERELVAVITTAGSTNYADSVKGRFTISRDNAKNTVYLPMNSLKPEDTAVYYCATDNGTRKGRYDYWGQGTQVTVSS”, the “polyreactivity (PSR sort gate)” value was “low polyreactivity”.
For “QDQLVESGGGLVQAGRSLRLSCAASGSIFTVYAMGWYRQAPGKEWELVASISTGGSTNYADSVKGRFTISRDNAKNTVYLPMISLKPEDTAVYYCAATGWAYGYGYGYWGQGTQVTVSS”, the “polyreactivity (PSR sort gate)” value was “low polyreactivity”.
For “QDQLVESGGGLVQAGVSLRLSCAASGSTFAYITMGRYRQAPGKERELVAAISWRGTRTYYADSVKGRFTISRDNAKNNVYLQMNSLKPEDTAVYYCATKDGISYDYWVQGTQVTVSS”, the “polyreactivity (PSR sort gate)” value was “high polyreactivity”.
With “QDQLVESGGGLVQARGPLRLSCSASGFNFSNYAMGWYRHAPGKERELVAAISFTGSNTYYADSVKGRFTISRDNAKNTVYLQMNSLKPEDTAVYYWNDPLVWGVYAAQNWDEGYWGQGTQVTVSS” the “polyreactivity (PSR sort gate)” value was “low polyreactivity”.
With “QDQLVESGGGLVQARVSLRLSSAASGFIFRWNTMGWYRQAPGKERELVAAISSRGGSTYYAYSVKGRFKISRDNAKNTVYLQMNSLKPEDTAVYYCNAVRGDEYWGQGTQVTVSS” the “polyreactivity (PSR sort gate)” value was “high polyreactivity”.
With “QDQLVESGGGLVQEGGSLRLSCAASVSIQAPYAMGWYRQAPGKERELVAAISSRGGSTYYADSVKGRFTISRDNAKNTVYLQMNSLKPEDTAVYYCAAYVYLQVEYDYWGQGTQVTVSW” the “polyreactivity (PSR sort gate)” value was “low polyreactivity”.
In the case of “QDQLVESGGGLVQPGGSLRLSCAASGITFYYYTMGWYRQAPGKERELVAGITRGGRTYYADSVKGRFTISRDNAKNTVYLQMNSLKPVDSAVYYCNADPWWRFDYWGQGTQVTVSS”, the “polyreactivity (PSR sort gate)” value is reported as “low polyreactivity”.
For “QDQLVESGGGLVQTGGSLRLSCASSGLIFTYYALGWYRQAPGTERELVAANRGSYSSTYYADSVKGRFTISRDNAKNTVYLHMNSLKPEDTAVYYCAAKYYWGQGTQVTVSS”, the “polyreactivity (PSR sort gate)” value was “high polyreactivity”.
For “QDQLVESGGLLVQAGGSLRLSCAAYGSTIGVYAMGWYRQAPRKERELVAAISSSTGSTYYADSVKGRFTISRDNAKNTVYLQMIRQKPEDTAVFYCAAAGYGKVRGDYWGQGTQVSVSS”, the “polyreactivity (PSR sort gate)” value was “low polyreactivity”.
In the case of “QDQLVESGGRIVQAGGSLRLSCAASGRIFSVYARGWYRQAPGKERELVATISDGGATTYYADSVKGRFTISRDNAKNTVFFQMNSLKPEDTAVYYCAADKRGRPGLPDYDSWGQGTEVTVSS”, the “polyreactivity (PSR sort gate)” value is reported as “low polyreactivity”.
For “QDQLVESGGRLVQAGGSLRLSCAASGFILSTYAMGWYRQAPGKERELVAAISSSGTSTYYADSVKGRFTISRDNAKNTVYLQMNSLKPEDTAVYYCARVSKRTWSGYYYWGQGTQVTVST”, the “polyreactivity (PSR sort gate)” value was “high polyreactivity”.
For “QDQLVESGLGIVQAGGSLRLSCAASGYTFSQYSMGWYRQAPGKERELVAAIDSGSKTKYADSVKGRFTISRDNAKNTVYLQMNSLKPEDSAVYYCAADDSYRSIGGDYWGQGTQVTVSS”, the “polyreactivity (PSR sort gate)” value was “low polyreactivity”.
In the case of “QDQLVESGVGLVQAGGSHRLSCAASGSTFYRYAMRWYRQAHGKERELVATITTGGSSTYYADSVKGRFTISRDNAKNTVYLQMNSLKPEDTAVYYCAKVYTYSGVNLRRISTPYGYWGQGTQVTVSS”, the “polyreactivity (PSR sort gate)” value is reported as “high polyreactivity”.
In the case of “QDQLVESGVGLVQAGGSLRLSCAASGRILGRNAMGWYRQAPGKERELVAAISSGVSTNYADSVKGRFTISRANAKNTVYLQMNSLKPEDTAVYYWGQGTQVTVSS”, the “polyreactivity (PSR sort gate)” value is reported as “low polyreactivity”.
With “QDQLVESRGGIVQAGGRLRLSCAASGSRFGGYGMGWYRQAPWKEREFVAVITKRGGSTYYADSVKGRFTISRDNAYNTVYLQMNSLKPEDTAVDYCNKVGYYASVLCYDYWGQGTQVTVSS” the “polyreactivity (PSR sort gate)” value was “high polyreactivity”.
With “QDQLVESRGGLVQAGGSLRLICDASGFTFDSNAMVWYRQEPGKERQLVAAISARGTSTYYADSVKGRFTISRDNAKNTVYLQMNSLKPEDTAVYDCNTGESSWYLPEEDYWGQGTQVTLSS” the “polyreactivity (PSR sort gate)” value was “low polyreactivity”.
With “QDQLVESRGGLVQAGGSLRLSCAASGFTFPSYAMGWYRQAPRKERELVAAITRSGGRTYYADSVKGRFTISRDNAKNTVYLQMNILKPEDTAVYYGAADRAAPRYDYWGQGTQVTVSS” the “polyreactivity (PSR sort gate)” value was “high polyreactivity”.
For “QDQLVESRGGLVQAGGSLRLSCAASGGTFRVYAMGWFIQAPGKERELVAAISSGGSTNYADSVNGRFTISRDNSKNTVYLQMNSLKPEDTAVYYCAADRVGWSVYRGDYWGHGTQVTVSS”, the “polyreactivity (PSR sort gate)” value was “high polyreactivity”.
With “QDQLVESRGGLVQAGGSLRLTCAASGSTFVIYDMGWYSQATGKERELVAVITIIGGSTYYADSVKGRFTISRDNAKNTVYLQMNSLKPEDTAVYYCNANVIQDYPNYDYWGQGTQVSVSS” the “polyreactivity (PSR sort gate)” value was “low polyreactivity”.
In the case of “QDQLVESRGVLVQAGGSLRLSCAASGSTFEANAMGWYRQAPGKERELVAVITWTGGSTYYADSVKGRFTISRDNAKNTVYLQMNSLKPEDTAVYYCAADGVVPGRFFWPAHEYDYWGQGTQVTVSS”, the “polyreactivity (PSR sort gate)” value is reported as “low polyreactivity”.
With “QDQLVESVGGLDQAGVSLRLSCAASGFIFRAYAMGWYRQAPGKERELVAAITKRSGTTYYADSVKGRFTISRDNAKNTVYLQMNSLKPEDTAVYYCAAKTLYNSGTQDRAMGYWGQGTQVTVSS” the “polyreactivity (PSR sort gate)” value was “high polyreactivity”.
For “QDQLVESVGGLVQAGGSLRLSCAASGLTFEVYAMGWSRQAPGKDRELVAAISSGGRSTYYADSVKGRFTISRDNAKNTVYLQMNSRKPEDSAVYYCNAVAKLYYWRYDYWGQGTQVTVSS”, the “polyreactivity (PSR sort gate)” value was “low polyreactivity”.
In the case of “QDQLVESVGGLVQAGGSLRLSCAASGSTFTSNAMGWYRQAPGKERELVAVITIGGSTNYADSVKGRFTISLDNAKNSVYLQMNSLKPEDTAVYYCAAELFPLQHFWGAYATRRYDYWGQGTQVTVSS”, the “polyreactivity (PSR sort gate)” value is reported as “low polyreactivity”.
With “QDQLVESVVGLVQAGGSLRLSCAASGRIFEDYAMGWYRQAPGKERELVARICSGDSTNYADSVKGRFTISRDNAKNTVYLQMNSLKPEDTAVYYCAAEGGVQEFDFCGQGTQVTVSS” the “polyreactivity (PSR sort gate)” value was “low polyreactivity”.
In the case of “QDQLVESWVGLVQAGGSLRLSYAASGYIIKYNAMGRYRHAPRKERELVAAISSIGGRTYYADSVKARFTISRDNAKNNVYLQINILKPEDTAVYYFNAVGGRYTGWRYDYWGQGTQVTVSS”, the “polyreactivity (PSR sort gate)” value is reported as “high polyreactivity”.
For “QDQLVETGGGLVQAGGSLRLSCAASGSTFAYYTMGWYRPAPGKERELVAAISSGGITYYAYSVKGRFTISRDNAKNTVYLQMNSLKPEDTAVYYCAAYRTHGPPRAIRFDYWGQGTQVTVSS”, the “polyreactivity (PSR sort gate)” value was “high polyreactivity”.
In the case of “QDQLVETGGGLVQAGGSLRLSCAASGSTFWGNAMGWYRQAPGKESELVAAISTSDTSTYYADSVKGRFTISRDNAKNTVYLQMNSLKPEDTAVYYCAAEWYYGEKYDYWGQGTQVTVSS”, the “polyreactivity (PSR sort gate)” value is reported as “low polyreactivity”.
In the case of “QDQLVKSGGGLVQAGGSLRLSCAASGSTFTRNAMGWYRQAHGKERELVAAITLRGGRTYYADSVNGRFTISRDNAKNTVYLHMNSLKPEDTAVYYCAAKPYSAYSYYEQRGRKYDYWGQGTQVTVSS”, the “polyreactivity (PSR sort gate)” value is reported as “low polyreactivity”.
For “QDQLVVSGGGLVQAGGSHSLSCAASGSIFIGYSMGWYRQAPGQERELVAAITSSGRTNYADSVKGRFTISRDNAKNTVYLQMTILKPEDTAVYYCNAEGYQFFTFDYWGQGTQVTVSS”, the “polyreactivity (PSR sort gate)” value was “low polyreactivity”.
For “QDQRVESAGGLVQAGGSLRLSCAASGNIFDPNAMGGYRQAPGKERELVAAIRRGGSTNYADSVKGRFTISRDNAKNTVYLQMISLKPEDTAVYDCDKSRVSFTDLEGYYWGQGTLVTVSS”, the “polyreactivity (PSR sort gate)” value was “low polyreactivity”.
For “QEQHVESGGGLVQAGGSLRLSCAATGLIIYYYAMGWYRQAPGKEMEFVAAISTSGSRTYYADSVKGRFTISRDNAKNTVSLQMNSLKPEDTAVYYCAAEPGRSRYAWGYSYPYDYWGQGTQVTVSS”, the “polyreactivity (PSR sort gate)” value was “high polyreactivity”.
In the case of “QEQLQESGGGLVQAGGSLRLSCAASGNIYDADIMGWYRQAPGKERELVTSITDGGSTNYADSVKGRFTISRDNAKNTVYLQMNSLKPEDTAVYFCAAIAYPVIPTSFDYNSDYSYWGQGTQVTVSS”, the “polyreactivity (PSR sort gate)” value is reported as “low polyreactivity”.
With “QEQLQESGGGLVQAGGSLRLSCAASGSISGSSTMGWYRPAPGKERELVASIAVGANTNYADSAKGRFTISRDNAKNTVYLQMNSLKPEDTAVYYCAVDYYIYYFHYWGQGTQVTVSS” the “polyreactivity (PSR sort gate)” value was “high polyreactivity”.
For “QEQLQESGGGLVQAGGSLRLSCAASGSISPYIYMGWYRQAPGKERAFVAGIGYGGTTNYADSEKGRYTISRDNAKNTEYLQMNSLKPDDTALYYCNAAYFAGPADDKFDYWGQGTQVTVSS”, the “polyreactivity (PSR sort gate)” value was “low polyreactivity”.
In the case of “QEQLQESGGGLVQAGGSLRLSSAASGSISGSSTMGWYRQAQGKERELVASIAVGANTNYADSAKGRFTISRDNAKNTVYLQMNSLKPEDTAVYYCAVDYYIYYFHYWGQGTQVTVSS”, the “polyreactivity (PSR sort gate)” value is reported as “high polyreactivity”.
For “QEQLQESGGGLVQAGGSLRQICAASGSNTPWSYMGRYRQAPGKEREFVASINAGTNTYYADSAKGRITISRDNAKITVYLQMNSLKPEDTAVYYCAARPDGDRLFSYWGQGTQVTVSS”, the “polyreactivity (PSR sort gate)” value was “low polyreactivity”.

From the nanobody polyreactivity screen of Harvey et al. (2022)
